Biological target: FgSreA, 6xHis-tagged recombinant protein (Fusarium graminearum PH-1)
Assay: MST
Conditions: natural protein

With “FgGrx4, 6xHis-tagged recombinant protein” the EC50 was 17.7 µM and the Kd was 0.0001 µM.

Source: PMC10602907
